B1: CH1-derived substrate peptide (HTFPAVL) (peptide)
peptide: HTFPAVL
notes: peptide derived from the CH1 domain of an IgG heavy chain; also called IgG heavy chain-derived peptide; source: synthetic peptide (custom synthesis by Pepscan)
B2: Nucleotide-binding domain (NBD) of GRP78 (domain or fragment)
chain: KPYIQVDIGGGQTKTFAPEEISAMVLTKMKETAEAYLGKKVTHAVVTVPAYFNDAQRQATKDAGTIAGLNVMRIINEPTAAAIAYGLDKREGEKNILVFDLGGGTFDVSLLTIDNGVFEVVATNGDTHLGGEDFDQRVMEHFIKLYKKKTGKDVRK
modifications: RED-tris-NTA dye held on the His-tag
B3: Recombinant human MANF protein (natural protein, UniProt P55145 25-182, looked up)
chain: LRPGDCEVCISYLGRFYQDLKDRDVTFSPATIENELIKFCREARGKENRLCYYIGATDDAATKIINEVSKPLAHHIPVEKICEKLKKKDSQICELKYDKQIDLSTVDLKKLRVKELKKILDDWGETCKGCAEKSDYIRKINELMPKYAPKAASARTDL
notes: MANF, human, mature protein secreted from CHO-derived cells; also called wild-type MANF; FL-MANF; source: CHO-derived cell line (QMCF technology), purified from culture media (Q FF, SP HP, SEC)

Holding throughout (details): both partners purified
For assay [1], the target named is T1, Recombinant hamster GRP78 protein (hamster, UniProt G3I8R9 19-654, RED-tris-NTA dye held on the His-tag).
T1 construct: GRP78 (BiP), hamster; also called BiP; full-length GRP78; not shown: His-tag, N-terminal, kept
Put plainly: MST; GRP78 or its variants labelled through the N-terminal His-tag, constant 20 nM; ligand titrated in 2-fold dilutions; 25 °C; MST buffer (10 mM Na-phosphate pH 7.4, 1 mM MgCl2, 3 mM KCl, 150 mM NaCl, 0.05% Tween-20); no nucleotide; for MANF with GRP78 also 0, 1, 100 or 200 uM CaCl2; fit with 1:1 stoichiometry.

The target in assay [2] is T1, Recombinant hamster GRP78 protein. Put plainly: MST; as a4, in the presence of ADP.
Assay [3] addresses B3. The assay can be described thus: MST; GRP78 or its variants labelled through the N-terminal His-tag, constant 20 nM; ligand titrated in 2-fold dilutions; 25 °C; MST buffer (10 mM Na-phosphate pH 7.4, 1 mM MgCl2, 3 mM KCl, 150 mM NaCl, 0.05% Tween-20); no nucleotide; for MANF with GRP78 also 0, 1, 100 or 200 uM CaCl2; fit with 1:1 stoichiometry.
Assay [4] has as its target T1, Recombinant hamster GRP78 protein. The assay can be described thus: MST; as a4, in the presence of AMP.

T1 sequence (G3I8R9 19-654): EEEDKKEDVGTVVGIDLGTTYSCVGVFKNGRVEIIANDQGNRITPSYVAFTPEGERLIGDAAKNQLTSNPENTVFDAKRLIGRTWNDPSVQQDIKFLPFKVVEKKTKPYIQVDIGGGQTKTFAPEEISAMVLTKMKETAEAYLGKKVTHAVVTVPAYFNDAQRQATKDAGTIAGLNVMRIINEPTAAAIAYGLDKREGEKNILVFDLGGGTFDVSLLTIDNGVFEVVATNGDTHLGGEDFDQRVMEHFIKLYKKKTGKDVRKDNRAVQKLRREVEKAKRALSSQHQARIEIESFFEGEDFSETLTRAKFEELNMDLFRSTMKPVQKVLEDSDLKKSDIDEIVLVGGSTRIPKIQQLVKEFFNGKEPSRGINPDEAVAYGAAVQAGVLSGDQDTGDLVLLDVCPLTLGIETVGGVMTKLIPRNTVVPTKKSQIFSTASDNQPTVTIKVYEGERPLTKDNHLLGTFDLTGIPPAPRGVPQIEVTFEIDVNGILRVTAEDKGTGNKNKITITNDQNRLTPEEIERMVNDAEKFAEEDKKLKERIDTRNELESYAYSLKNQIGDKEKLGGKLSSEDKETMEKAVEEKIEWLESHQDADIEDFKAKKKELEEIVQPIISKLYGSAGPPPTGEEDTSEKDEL

A word on the Kd: it is the constant that tells how readily two partners part at equilibrium. As to B1, the figures for the dissociation constant (Kd) in assay [1] and in assay [2] were 220 nM and 120 nM, respectively.
On to B2, for which the Kd in assay [3] stood at 280 nM.
For the molecule B3, the Kd in assay [1] turned out to be 380 nM; in assay [2] it was 5690 nM; in assay [4], 260 nM.

The values are drawn from publication PMC7949057, “The cytoprotective protein MANF promotes neuronal survival independently from its role as a GRP78 cofactor” (The Journal of Biological Chemistry, 2021).
